Assay [1] addresses T1, recombinant hAng-2 (C-His, R&D Systems) (human, UniProt O15123 19-496).
T1 sequence: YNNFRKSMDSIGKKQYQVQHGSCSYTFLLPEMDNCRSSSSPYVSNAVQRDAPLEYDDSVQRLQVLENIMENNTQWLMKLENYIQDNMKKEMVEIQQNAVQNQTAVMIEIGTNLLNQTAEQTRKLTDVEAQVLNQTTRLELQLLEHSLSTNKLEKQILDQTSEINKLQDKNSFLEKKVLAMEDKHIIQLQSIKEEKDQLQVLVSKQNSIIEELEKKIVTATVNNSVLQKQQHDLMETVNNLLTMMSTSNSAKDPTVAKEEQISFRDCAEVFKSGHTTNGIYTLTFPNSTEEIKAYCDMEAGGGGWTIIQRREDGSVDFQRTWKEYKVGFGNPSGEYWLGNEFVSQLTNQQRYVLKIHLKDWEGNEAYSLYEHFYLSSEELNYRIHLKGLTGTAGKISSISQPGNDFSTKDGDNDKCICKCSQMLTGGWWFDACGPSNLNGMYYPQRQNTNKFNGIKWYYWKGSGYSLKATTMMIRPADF
The experiment in a line: cell-based or functional assay.

In assay [2] the target is FLAG-tagged Ang2 RBD mutant P419A (human) (UniProt O15123). The experiment in a line: ELISA; 10D6 coated (1000 nM), 250 ng FLAG-tagged Ang2 RBD mutant, anti-FLAG-HRP, OD450; reference native Ang2; cell may be cut off at the left. In general terms: ELISA stands for enzyme-linked immunosorbent assay.
For assay [3], the target named is FLAG-tagged Ang2 RBD mutant Q418A (human) (UniProt O15123). The description is as above.
Assay [4] addresses FLAG-tagged Ang2 RBD mutant at A449 (substituted with alanine (so in the source)) (human) (UniProt O15123). Described as above.
Assay [5] concerns the target T2, BSA (bovine, UniProt P02769).
T2 construct: commercial preparation (Sigma); named on the sheet under 'Coating:'; also called bovine serum albumin (Sigma); control coating
The experiment in a line: ELISA: coated BSA, FLAG-Ang2 0.25 µg/ml and 10D6 2 µg/ml, detected with anti-mouse IgG-HRP (OD450). As to the method: A 96-well MaxiSorp™ flat-bottom plate (Nunc) was coated with 4 μg/ml of Tie2-Fc (R&D systems) or BSA (Sigma). Then, the plate was washed five times with 0.05% (v/v) Tween-20-containing PBS (Phosphate Buffer Saline) and blocked with 1% (v/v) BSA (Bovine serum albumin; Sigma)-containing PBS at a room temperature for 2 hours. 0.25 μg/ml of Ang2 and 2 μg/ml of 10D6 antibody were added to each well of the plate, which was allowed to react at a room temperature for 2 hours and then washed five times with PBST. After that, an anti-mouse IgG antibody (Sigma) conjugated with HRP diluted in 1% (v/v) BSA-containing PBS at a ratio of 1:5,000 (v/v) was added in an amount of 100 ul to each well to react at a room temperature for 1 hour and then, the plate was washed five times with PBST. Lastly, 100 ul (microliter) of TMB substrate (Cell Signaling) was added to each well of the plate to induce color development for 3 min. and then, the reaction was ceased by the addition of 100 ul of Stop solution (Cell Signaling) and OD450 values were measured on a plate reader (Molecular Devices).

T2 sequence (P02769 25-607 limits assumed): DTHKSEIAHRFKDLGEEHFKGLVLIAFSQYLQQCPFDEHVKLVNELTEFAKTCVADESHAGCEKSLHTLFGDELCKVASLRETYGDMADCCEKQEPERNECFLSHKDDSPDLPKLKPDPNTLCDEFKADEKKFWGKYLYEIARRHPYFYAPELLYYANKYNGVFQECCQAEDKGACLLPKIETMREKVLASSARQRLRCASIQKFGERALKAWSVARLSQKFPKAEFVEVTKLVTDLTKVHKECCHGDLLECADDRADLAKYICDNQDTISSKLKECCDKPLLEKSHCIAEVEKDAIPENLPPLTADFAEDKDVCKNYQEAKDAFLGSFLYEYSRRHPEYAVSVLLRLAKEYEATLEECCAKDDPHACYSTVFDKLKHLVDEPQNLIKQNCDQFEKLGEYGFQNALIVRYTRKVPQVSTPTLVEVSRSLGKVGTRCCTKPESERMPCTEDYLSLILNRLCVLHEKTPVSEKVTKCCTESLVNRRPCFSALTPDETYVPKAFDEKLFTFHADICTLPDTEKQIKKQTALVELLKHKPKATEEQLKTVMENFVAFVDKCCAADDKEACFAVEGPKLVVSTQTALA

B1: SAIT-ANG2-AB-m10D6 (antibody, V domains shown)
VH: DVQLQESGPGLVKPSQSLSLTCTVTGYSITSDYAWNWIRQFPGNKLEWMGYINYSGNTDYNPSLKSRSSITRDTSKNQFFLQLNSVTTGDTATYYCARGNFEGAMDYWGQGTSVTVSS
VL: SIVMTQTPKFLLVSAGDRVTITCKASQSVSNDVAWYQQKPGQSPKLLIYYASNRYPGVPDRFTGSGYGTDFTFTISTVQAEDLAVYFCQQDYSSPWTFGGGTKLEIK
Turning to B1, the “Tie2 phosphorylation effect against the control antibody RG” value in assay [1] is roughly 8.6 fold against RG antibody. For the same molecule, the “Tie2 phosphorylation level (pTyr/Tie2 ratio) in HUVEC cells, 60 nM antibody with Ang2” value in assay [1] is 180 % increase against Ang2 alone. The binding affinity (%) with mutant Ang2 against the binding affinity with the native Ang2 was 1.08% in assay [2], 8.94% in assay [3] and 7.86% in assay [4].

B2: FLAG-tagged hAng-2 (ligand)
chain: T1 sequence
notes: not shown: FLAG tag
For the molecule B2, the binding result in assay [5] is given as “no binding (tested: 0.25 µg/ml)”.

The values above are taken from patent US20150030603A1 (SAMSUNG ELECTRONICS, published 2015).
